Results taken from US20190055314A1 (ADAGENE, published 2019).
Read-outs that look alike come from different tables or passages of the source. One block for each binder: values may come before it.

What was measured:
[1] = biological target: T1, full-length mouse CD137 on the cell surface (mouse, UniProt P20334 24-178); assay: flow cytometry, yeast display [Cont.]
T1 sequence: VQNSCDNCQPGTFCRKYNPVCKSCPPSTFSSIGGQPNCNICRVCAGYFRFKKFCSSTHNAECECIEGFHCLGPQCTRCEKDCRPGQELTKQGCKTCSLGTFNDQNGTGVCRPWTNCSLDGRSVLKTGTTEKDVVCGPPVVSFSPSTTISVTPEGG

Hu_CRD2 = biological target: T2, Hu_CRD2 (human, UniProt Q07011 46-86, limits assumed); assay: flow cytometry, yeast display [Cont.]
T2 construct: also called human CD137 CRD2
T2 chain: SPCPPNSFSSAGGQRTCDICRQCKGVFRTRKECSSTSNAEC

[2] = biological target: T3, full-length human CD137 on the cell surface (human, UniProt Q07011 18-255); assay: flow cytometry, yeast display [Cont.]
T3 construct: also called Human WT

[3] = biological target: T4, rat CD137 on the cell surface (rat, UniProt Q4W8J3 24-258); assay: flow cytometry, HEK293F cells expressing CD137
T4 sequence: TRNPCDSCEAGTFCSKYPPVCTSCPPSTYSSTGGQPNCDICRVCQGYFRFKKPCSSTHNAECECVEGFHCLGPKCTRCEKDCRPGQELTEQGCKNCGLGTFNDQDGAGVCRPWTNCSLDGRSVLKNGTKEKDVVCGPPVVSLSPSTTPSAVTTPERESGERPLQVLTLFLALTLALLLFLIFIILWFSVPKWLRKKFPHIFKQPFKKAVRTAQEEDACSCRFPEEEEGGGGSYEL

[4] = biological target: T5, mouse CD137 fused with human FC fragment (mouse, UniProt P20334 24-178, limits assumed); assay: ELISA, coated CD137-Fc
T5 construct: also called mouse CD137-Fc; not shown: human Fc fragment
T5 sequence: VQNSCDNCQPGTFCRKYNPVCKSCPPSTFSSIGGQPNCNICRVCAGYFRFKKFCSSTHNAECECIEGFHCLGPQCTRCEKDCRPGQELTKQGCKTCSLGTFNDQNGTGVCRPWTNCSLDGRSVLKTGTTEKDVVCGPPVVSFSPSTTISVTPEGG

Hu_PW135AA = biological target: T6, Hu_PW135AA (human, UniProt Q07011 18-255); assay: flow cytometry, HEK293F cells expressing CD137 or mutant [Cont.]
T6 construct: On HEK293F

Hu_FN125AA = biological target: T7, Hu_FN125AA (human, UniProt Q07011 18-255); assay: as above
T7 construct: On HEK293F

Hu_GT150AA = biological target: T8, Hu_GT150AA (human, UniProt Q07011 18-255); assay: as above
T8 construct: On HEK293F

[5] = biological target: T9, mouse CD137 protein (Biacore) (mouse, UniProt P20334 24-178, limits assumed); assay: SPR Biacore
T9 construct: Construct used as SPR analyte not described
T9 sequence: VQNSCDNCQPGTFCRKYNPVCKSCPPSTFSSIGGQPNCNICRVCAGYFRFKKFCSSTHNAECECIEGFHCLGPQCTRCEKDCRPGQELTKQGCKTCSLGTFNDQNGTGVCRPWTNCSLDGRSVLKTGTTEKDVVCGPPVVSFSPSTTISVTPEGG

Hu_CRD1-CRD2-CRD3 [6] = biological target: T10, Hu_CRD1-CRD2-CRD3 (human, UniProt Q07011 24-118, limits assumed); assay: flow cytometry, yeast display [Cont.]
T10 construct: also called three CRD units (CRD1-CRD2-CRD3) of human CD137

Hu_CRD3-CRD4 [7] = biological target: T11, Hu_CRD3-CRD4 (human, UniProt Q07011 87-159, limits assumed); assay: flow cytometry, yeast display [Cont.]
T11 construct: also called two CRD units (CRD3-CRD4) of human CD137

Hu_CRD2-CRD3-CRD4 [8] = biological target: T12, Hu_CRD2-CRD3-CRD4 (human, UniProt Q07011 46-159, limits assumed); assay: flow cytometry, yeast display [Cont.]
T12 construct: also called three CRD units (CRD2-CRD3-CRD4) of human CD137

[9] = biological target: T3, full-length human CD137 on the cell …; assay: flow cytometry, HEK293F
Hu_TN137AA = biological target: T13, Hu_TN137AA (human, UniProt Q07011 18-255); assay: flow cytometry, HEK293F
T13 construct: On HEK293F

Hu_GQ109AA = biological target: T14, Hu_GQ109AA (human, UniProt Q07011 18-255); assay: flow cytometry, HEK293F
T14 construct: On HEK293F

Hu_EL111AA = biological target: T15, Hu_EL111AA (human, UniProt Q07011 18-255); assay: flow cytometry, HEK293F
T15 construct: On HEK293F

Hu_GTF34AAA = biological target: T16, Hu_GTF34AAA (human, UniProt Q07011 18-255); assay: flow cytometry, HEK293F cells expressing CD137 or mutant [Cont.]
T16 construct: On HEK293F; also called GFT34AAA
T16 chain: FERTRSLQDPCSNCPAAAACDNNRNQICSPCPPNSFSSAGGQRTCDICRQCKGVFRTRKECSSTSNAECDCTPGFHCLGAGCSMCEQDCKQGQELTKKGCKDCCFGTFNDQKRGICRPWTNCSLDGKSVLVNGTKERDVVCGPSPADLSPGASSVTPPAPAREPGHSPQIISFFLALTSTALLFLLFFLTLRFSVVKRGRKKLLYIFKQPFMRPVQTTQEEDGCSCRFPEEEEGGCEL

Hu_FSS53AAA = biological target: T17, Hu_FSS53AAA (human, UniProt Q07011 18-255); assay: as above
T17 construct: On HEK293F
T17 chain: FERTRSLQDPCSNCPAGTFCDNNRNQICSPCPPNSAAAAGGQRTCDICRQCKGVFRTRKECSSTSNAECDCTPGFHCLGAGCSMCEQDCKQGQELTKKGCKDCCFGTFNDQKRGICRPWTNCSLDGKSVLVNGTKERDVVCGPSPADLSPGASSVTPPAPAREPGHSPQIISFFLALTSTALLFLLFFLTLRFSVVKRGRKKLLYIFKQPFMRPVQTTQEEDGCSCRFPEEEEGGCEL

Hu_FH92AA = biological target: T18, Hu_FH92AA (human, UniProt Q07011 18-255); assay: as above
T18 construct: On HEK293F

Hu_CRD4 [10] = biological target: T19, Hu_CRD4 (human, UniProt Q07011 119-159, limits assumed); assay: flow cytometry, yeast display [Cont.]
T19 construct: also called human CD137 CRD4
T19 chain: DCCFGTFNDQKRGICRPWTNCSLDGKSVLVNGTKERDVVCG

Hu_CRD1-CRD2 [11] = biological target: T20, Hu_CRD1-CRD2 (human, UniProt Q07011 24-86, limits assumed); assay: flow cytometry, yeast display [Cont.]
T20 construct: also called two CRD units (CRD1-CRD2) of human CD137

Hu_CRD3 [12] = biological target: T21, Hu_CRD3 (human, limits assumed); assay: flow cytometry, yeast display [Cont.]
T21 construct: also called human CD137 CRD3
T21 chain: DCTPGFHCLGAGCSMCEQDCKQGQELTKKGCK

Hu_CRD2-CRD3 [13] = biological target: T22, Hu_CRD2-CRD3 (human, UniProt Q07011 46-118, limits assumed); assay: flow cytometry, yeast display [Cont.]
T22 construct: also called two CRD units (CRD2-CRD3) of human CD137

[14] = biological target: T23, human CD137-His6 (Sino Biological #10041-H08H) (human, UniProt Q07011 24-186); assay: SPR Biacore, IgG captured
T23 construct: Bought; also called human CD137 protein; not shown: His6 tag

[15] = biological target: T1, full-length mouse CD137 on the cell …; assay: flow cytometry, HEK293F cells expressing CD137 or mutant
[16] = biological target: T3, full-length human CD137 on the cell …; assay: as above
[17] = biological target: T3, full-length human CD137 on the cell …; assay: cell-based or functional assay
Hu_CRD4 [18] = biological target: T19, Hu_CRD4; assay: flow cytometry, yeast display [Cont.]
Hu_CRD1-CRD2 [19] = biological target: T20, Hu_CRD1-CRD2; assay: flow cytometry, yeast display [Cont.]; remark: listed apart in the source
Hu_CRD3 [20] = biological target: T21, Hu_CRD3; assay: flow cytometry, yeast display [Cont.]
Hu_CRD2-CRD3 [21] = biological target: T22, Hu_CRD2-CRD3; assay: flow cytometry, yeast display [Cont.]; remark: listed apart in the source
Hu_CRD1-CRD2-CRD3 [22] = biological target: T10, Hu_CRD1-CRD2-CRD3; assay: flow cytometry, yeast display [Cont.]; remark: listed apart in the source
Hu_CRD3-CRD4 [23] = biological target: T11, Hu_CRD3-CRD4; assay: flow cytometry, yeast display [Cont.]; remark: listed apart in the source
Hu_CRD2-CRD3-CRD4 [24] = biological target: T12, Hu_CRD2-CRD3-CRD4; assay: flow cytometry, yeast display [Cont.]; remark: listed apart in the source
[25] = biological target: T3, full-length human CD137 on the cell …; assay: flow cytometry, yeast display [Cont.]; remark: listed apart in the source
[26] = biological target: T24, CD137-hisFc fusion protein (Sino Biological Cat 10041-H03H) (human, UniProt Q07011 24-186); assay: BLI Octet, Fab
T24 construct: Bought; also called recombinant human CD137 (fused with human Fc and His tag); not shown: His tag and human Fc

[27] = biological target: T24, CD137-hisFc fusion protein (Sino …); assay: BLI Octet, Fab; remark: listed apart in the source
[28] = biological target: T5, mouse CD137 fused with human FC fragment; assay: ELISA, Fab captured by anti-human IgG (Fab specific), CD137-Fc added, anti-human Fc-HRP

% in upper right quadrant [1]: 0.4% | Mean [1]: 13100 | % in upper right quadrant (Hu_CRD2): 0.26% | Mean (Hu_CRD2): 4050 | % in upper right quadrant [2]: 32.2% | Mean [2]: 93600 | binding result [4]: no binding | Mean (Hu_PW135AA): 53900 | Mean (Hu_FN125AA): 23100 | Mean (Hu_GT150AA): 21300 | binding result [5]: no binding | % in upper right quadrant (Hu_CRD1-CRD2-CRD3 [6]): 57.2% | Mean (Hu_CRD1-CRD2-CRD3 [6]): 46500 | % in upper right quadrant (Hu_CRD3-CRD4 [7]): 0.18% | Mean (Hu_CRD3-CRD4 [7]): 3460 | % in upper right quadrant (Hu_CRD2-CRD3-CRD4 [8]): 0.42% | Mean (Hu_CRD2-CRD3-CRD4 [8]): 29500 | Kd [9]: 3.3 nM | binding result (Hu_TN137AA): binds | binding result (Hu_GQ109AA): binds | binding result (Hu_EL111AA): binds | Mean (Hu_GTF34AAA): 8620 | Mean (Hu_FSS53AAA): 16700 | binding result (Hu_FH92AA): binds | % in upper right quadrant (Hu_CRD4 [10]): 0.15% | Mean (Hu_CRD4 [10]): 6770 | % in upper right quadrant (Hu_CRD1-CRD2 [11]): 51.4% | Mean (Hu_CRD1-CRD2 [11]): 26000 | % in upper right quadrant (Hu_CRD3 [12]): 0.22% | Mean (Hu_CRD3 [12]): 13900 | % in upper right quadrant (Hu_CRD2-CRD3 [13]): 0.12% | Mean (Hu_CRD2-CRD3 [13]): 12800 | Kd [14]: 9.6 nM | % in upper right quadrant [16]: 27.8% | NFκB reporter: EC50 (nM) With Cross-Linker [17]: 2.51 nM | NFκB reporter: EC50 (nM) Without Cross-Linker [17]: 1.27 nM
B1: AC1121 (antibody, V domains shown)
VH: QVQLQQWGAGLLKPSETLSLTCAVYGGSFSGYYWSWIRQSPEKGLEWIGEINHGGYVTYNPSLESRVTISVDTSKNQFSLKLSSVTAADTAVYYCARDYGPGNYDWYFDLWGRGTLVTVSS
VL: EIVLTQSPATLSLSPGERATLSCRASQSVSSYLAWYQQKPGQAPRLLIYDASNRATGIPARFSGSGSGTDFTLTISSLEPEDFAVYYCQQRSNWPPALTFGGGTKVEIK
binding result [3]: no binding (tested: 100 nM (text paragraph 220)) | binding result [15]: no binding (tested: 100 nM (as in Example 5))

% in upper right quadrant (Hu_CRD4 [18]): 0.15% | Mean (Hu_CRD4 [18]): 9270 | % in upper right quadrant (Hu_CRD1-CRD2 [19]): 0.16% | Mean (Hu_CRD1-CRD2 [19]): 43800 | % in upper right quadrant (Hu_CRD3 [20]): 0.2% | Mean (Hu_CRD3 [20]): 46000 | % in upper right quadrant (Hu_CRD2-CRD3 [21]): 0.19% | Mean (Hu_CRD2-CRD3 [21]): 15900 | % in upper right quadrant (Hu_CRD1-CRD2-CRD3 [22]): 0.19% | Mean (Hu_CRD1-CRD2-CRD3 [22]): 4700 | % in upper right quadrant (Hu_CRD3-CRD4 [23]): 0.24% | Mean (Hu_CRD3-CRD4 [23]): 10000 | % in upper right quadrant (Hu_CRD2-CRD3-CRD4 [24]): 0.026% | Mean (Hu_CRD2-CRD3-CRD4 [24]): 3260 | binding result [25]: no binding
B2: mouse CD137L (ligand, UniProt P41274 104-309, looked up)
chain: RTEPRPALTITTSPNLGTRENNADQVTPVSHIGCPNTTQQGSPVFAKLLAKNQASLCNTTLNWHSQDGAGSSYLSQGLRYEEDKKELVVDSPGLYYVFLELKLSPTFTNTGHKVQGWVSLVLQAKPQVDDFDNLALTVELFPCSMENKLVDRSWSQLLLLKAGHRLSVGLRAYLHGAQDAYRDWELSYPNTTSFGLFLVKPDNPWE

Kd [26]: 7.29 nM | koff [26]: 0.0034 s⁻¹ | kon [26]: 466000 M⁻¹ s⁻¹ | Kd [27]: 7.3 nM | koff [27]: 0.0034 s⁻¹ | kon [27]: 470000 M⁻¹ s⁻¹ | binding result [28]: no binding
B3: Fab 5351 (Fab, V domains shown)
VH: EVQLVESGGGLVQPGGSLRLSCAASGYSITSGHYWAWIRQAPGKGLEWVSSISGYGSTTYYADSVKGRFTISRDNSKNTLYLQLNSLRAEDTAVYYCARGGSDAVLGDWFAYWGQGTLVTVSS
VL: DIQLTQSPSSLSASVGDRVTITCRASQGIGSFLAWYQQKPGKAPKLLIYDASNLETGVPSRFSGSGSGTDFTLTISSLQPEDFATYYCQQGYYLWTFGQGTKVEIKR
notes: Fab from E. coli; also called VH25/VL25
